Molecular target: T1, polyUb-E6AP (resin-bound E6AP autoubiquitinated with K48-linked polyubiquitin chains) (UniProt Q05086 1-875; P0CG48 1-76, K48-linked polyubiquitin chains of undefined length attached by autoubiquitination; sites not stated | ubiquitins joined to each other by K48 isopeptide linkages and to E6AP; chain length undefined)
T1 construct: HECT E3 ligase E6AP; ubiquitin, the mature 76-residue protein, wild type; Covalent conjugate held on resin; also called K48-polyUb conjugates; polyubiquitinated E6AP; source: E3 enzyme expressed in E. coli and purified
Experiment: pull-down; resin-bound polyUb-E6AP and polyUb-Ube2SΔ incubated with 100 nM purified Rpn10-UIM, hHR23A or hHR23B for 30 min at 4°C, washed; bound proteins by immunoblot for His (Rpn10) or hHR23A/B
Details: both partners purified

- fold binding relative to K11 chains (polyUb-Ube2SΔ), ImageJ quantification: ~4 fold
B1: recombinant Ub-interacting motif (UIM) of Rpn10 (domain or fragment)
chain: MLGLGASDFEFGVDPSADPELALALRVSMEEQRQRQEEEARRAAAASAAEAGIATTGTEDSDDALLKMTISQQEFGRTGLPDLSSMTEEEQIAYAMQMSLQGAEFGQAESA
